Laboratory results: patent US20080220004A1 (published 2008)

B1: mini-VEGF trap (other)
chain: SDTGRPFVEMYSEIPEIIHMTEGRELVIPCRVTSPNITVTLKKFPLDTLIPDGKRIIWDSRKGFIISNATYKEIGLLTCEATVNGHLYKTNYLTHRQTNTIIDVVLSPSHGIELSVGEKLVLNCTARTELNVGIDFNWEYPSSKHQHKKLVNRDLKTQSGSEMKKFLSTLTIDGVTRSDQGLYTCAASSGLMTKKNSTFVRVHEKDKTHTCPPC
notes: also called truncated VEGF trap protein

Assays:
[1] = molecular target: chimeric receptor Flt(1-7)-EpoR on Baf/3 cells (human) (UniProt P17948); assay: cell-based or functional assay
[2] = molecular target: human VEGF165 (human, UniProt P15692-4 27-191); assay: ELISA of rabbit ocular tissue and plasma samples on human VEGF165-coated plates (pharmacokinetic detection)
Chain of human VEGF165 (P15692 other isoform, or with tags, fused parts or gaps): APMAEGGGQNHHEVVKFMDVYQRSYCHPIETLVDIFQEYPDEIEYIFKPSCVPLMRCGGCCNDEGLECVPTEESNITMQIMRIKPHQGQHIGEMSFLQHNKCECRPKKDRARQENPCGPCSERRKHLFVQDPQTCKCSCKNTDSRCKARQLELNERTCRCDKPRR
Protocol: Ocular and systemic levels of two VEGF inhibitors were determined after a single intravitreal administration to male Pigmented New Zealand Cross Bred rabbits. At various time points following the injection, the rabbits were sacrificed and vitreous, retina, and choroid tissues were collected, as well as blood samples for plasma and serum.
Sample Processing. Generally, vitreal samples were thawed at room temperature and transferred to individual 5 mL polypropylene tubes. An equivalent weight per volume of RIPA buffer (20 MM Tris HCl, pH 7.5, 5 mM benzamidine, 150 mM sodium chloride, 50 mM sodium fluoride, 1 mM sodium orthovanadate, and 1 mM EDTA) was added to each sample, and homogenized (Cyclone I.Q. Microprocessor, Sentry) for 2, 45 second cycles at 5,500 rpm. The samples were then incubated for 20 minutes on ice and then centrifuged for 30 minute at 5,500 rpm at 4° C. The supernatant was removed and stored at −80° C. for analysis. Retinal and choroid samples were similarly processed the samples were homogenized for 30-60 seconds at the highest speed setting (Ultra Tunax T8 Homogenizer with S8N-5G Disposing Element, IKA Laboratoies). The samples were transferred to individual 1.5 mL eppendorf tubes and incubated for 20 minutes on ice. They were then centrifuged for 30 minutes at 5,500 rpm, 4° C. […]

Chain of chimeric receptor Flt(1-7)-EpoR on Baf/3 cells (human) (P17948 other isoform, or with tags, fused parts or gaps mutant limits assumed): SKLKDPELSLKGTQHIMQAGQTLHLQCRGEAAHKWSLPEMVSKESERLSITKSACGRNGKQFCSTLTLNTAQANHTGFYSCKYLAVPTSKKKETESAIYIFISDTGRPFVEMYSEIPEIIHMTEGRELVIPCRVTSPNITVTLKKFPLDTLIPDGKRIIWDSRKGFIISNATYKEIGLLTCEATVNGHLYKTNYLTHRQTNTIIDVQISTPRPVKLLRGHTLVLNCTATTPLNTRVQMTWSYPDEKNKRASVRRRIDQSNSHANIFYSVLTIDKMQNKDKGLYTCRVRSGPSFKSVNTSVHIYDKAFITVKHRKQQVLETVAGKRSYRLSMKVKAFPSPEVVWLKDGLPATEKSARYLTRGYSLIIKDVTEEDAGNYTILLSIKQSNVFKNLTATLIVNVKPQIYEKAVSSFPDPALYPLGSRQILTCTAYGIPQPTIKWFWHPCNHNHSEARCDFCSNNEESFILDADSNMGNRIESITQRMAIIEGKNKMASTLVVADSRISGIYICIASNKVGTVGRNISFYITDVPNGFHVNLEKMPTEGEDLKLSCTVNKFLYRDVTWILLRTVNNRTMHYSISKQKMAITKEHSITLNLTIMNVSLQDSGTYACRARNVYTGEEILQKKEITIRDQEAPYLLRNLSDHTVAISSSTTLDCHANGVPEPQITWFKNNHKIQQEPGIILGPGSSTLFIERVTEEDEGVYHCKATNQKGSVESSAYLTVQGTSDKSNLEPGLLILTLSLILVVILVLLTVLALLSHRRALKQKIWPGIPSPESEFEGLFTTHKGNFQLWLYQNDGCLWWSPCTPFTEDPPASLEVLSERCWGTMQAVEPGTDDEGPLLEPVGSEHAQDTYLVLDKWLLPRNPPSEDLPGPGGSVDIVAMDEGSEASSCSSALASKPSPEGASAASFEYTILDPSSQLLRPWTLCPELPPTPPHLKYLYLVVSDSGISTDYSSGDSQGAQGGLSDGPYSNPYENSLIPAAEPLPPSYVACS

Molecule	proliferation of Baf/Flt(1-7)-EpoR cells (WST-8 bioreduction), EC50 [1] [nM]	binding result [2]
VEGF 121 (R&D Biosystems) (from UniProt P15692 27-147) (ligand)	0.018	–
B1	–	binds
